Biological target: 14-3-3λ (UniProt P48349)
Test: GST pull-down, anti-14-3-3 blot
Settings: reference: SOS2-JD without PKS5; sites S294

SOS2 junction domain (SOS2-JD) (from UniProt Q9LDI3) SOS2-JD incubated with PKS5 and ATP
binding against the reference: stronger

Source: article PMC6416337
